The target of data set [1] is ExbD_(E113C) (E. coli (K-12 strain)) (UniProt P0ABV2). The data set can be described thus: cross-linking.
Data set [2] deals with ExbD_(E113C) labeled with MTSL (E. coli (K-12 strain)) (UniProt P0ABV2). The data set can be described thus: DEER spectroscopy.
The target of data set [3] is ExbD_(N78C) labeled with MTSL (Ton subcomplex) (E. coli (K-12 strain)) (UniProt P0ABV2). The data set can be described thus: DEER spectroscopy.
Data set [4] concerns the target ExbD_(N78C) labeled with MTSL (fully assembled Ton complex) (E. coli (K-12 strain)) (UniProt P0ABV2). The data set can be described thus: DEER spectroscopy.
Data set [5] concerns the molecule itself. The data set can be described thus: crystal structure.
The data set “DEER spectroscopy” deals with the molecule itself. The data set is described as follows: DEER spectroscopy.
Data set [6] deals with the molecule itself. The data set can be described thus: crystal structure. The source holds these as a separate data set.

This is an account of results in paper PMC5161667 (Nature, 2016).

Broadly, the stoichiometry N is a count of units in the complex or per binding partner.

“ExbD_(E113C) (from UniProt P0ABV2 1-141) (natural protein)” had a stoichiometry N in data set [1] of 2. “ExbD_(E113C) labeled with MTSL (from UniProt P0ABV2 1-141) (natural protein)” returned a stoichiometry N in data set [2] of 2. Consider “ExbD_(N78C) labeled with MTSL (Ton subcomplex) (from UniProt P0ABV2 1-141) (natural protein)”, for which, in data set [3], the stoichiometry N was 2. As to “ExbD_(N78C) labeled with MTSL (fully assembled Ton complex) (from UniProt P0ABV2 1-141) (natural protein)”, in data set [4], the stoichiometry N came out at 2.

B1: ExbB (natural protein, E. coli (K-12 strain), UniProt P0ABU7 1-244, looked up)
chain: MGNNLMQTDLSVWGMYQHADIVVKCVMIGLILASVVTWAIFFSKSVEFFNQKRRLKREQQLLAEARSLNQANDIAADFGSKSLSLHLLNEAQNELELSEGSDDNEGIKERTSFRLERRVAAVGRQMGRGNGYLATIGAISPFVGLFGTVWGIMNSFIGIAQTQTTNLAVVAPGIAEALLATAIGLVAAIPAVVIYNVFARQIGGFKAMLGDVAAQVLLLQSRDLDLEASAAAHPVRVAQKLRAG
B1: the “stoichiometry N” value in “crystal structure [5]” was determined as 5.

B2: ExbB labeled at C25 with MTSL (natural protein, E. coli (K-12 strain), UniProt P0ABU7 1-244, looked up)
chain: MGNNLMQTDLSVWGMYQHADIVVKCVMIGLILASVVTWAIFFSKSVEFFNQKRRLKREQQLLAEARSLNQANDIAADFGSKSLSLHLLNEAQNELELSEGSDDNEGIKERTSFRLERRVAAVGRQMGRGNGYLATIGAISPFVGLFGTVWGIMNSFIGIAQTQTTNLAVVAPGIAEALLATAIGLVAAIPAVVIYNVFARQIGGFKAMLGDVAAQVLLLQSRDLDLEASAAAHPVRVAQKLRAG
modifications: MTSL spin label on Cys25 (50% labeling efficiency)
On to B2, for which the “stoichiometry N” value in “DEER spectroscopy” worked out at 5.

B3: ExbB_(C25S), selenomethionine-substituted (natural protein, E. coli (K-12 strain), UniProt P0ABU7 1-244, looked up)
chain: MGNNLMQTDLSVWGMYQHADIVVKSVMIGLILASVVTWAIFFSKSVEFFNQKRRLKREQQLLAEARSLNQANDIAADFGSKSLSLHLLNEAQNELELSEGSDDNEGIKERTSFRLERRVAAVGRQMGRGNGYLATIGAISPFVGLFGTVWGIMNSFIGIAQTQTTNLAVVAPGIAEALLATAIGLVAAIPAVVIYNVFARQIGGFKAMLGDVAAQVLLLQSRDLDLEASAAAHPVRVAQKLRAG
modifications: selenomethionine-substituted
In the case of B3, the “stoichiometry N” value in the data set “crystal structure [6]” amounted to 5.
